Experimental data: US20220315967A1, “METHODS FOR PRODUCING D-TRYPTOPHAN AND SUBSTITUTED D-TRYPTOPHANS” (priority 2019, published 2022)

Target: T1, IvoA(C^0) mutant (H1428A)
T1 chain: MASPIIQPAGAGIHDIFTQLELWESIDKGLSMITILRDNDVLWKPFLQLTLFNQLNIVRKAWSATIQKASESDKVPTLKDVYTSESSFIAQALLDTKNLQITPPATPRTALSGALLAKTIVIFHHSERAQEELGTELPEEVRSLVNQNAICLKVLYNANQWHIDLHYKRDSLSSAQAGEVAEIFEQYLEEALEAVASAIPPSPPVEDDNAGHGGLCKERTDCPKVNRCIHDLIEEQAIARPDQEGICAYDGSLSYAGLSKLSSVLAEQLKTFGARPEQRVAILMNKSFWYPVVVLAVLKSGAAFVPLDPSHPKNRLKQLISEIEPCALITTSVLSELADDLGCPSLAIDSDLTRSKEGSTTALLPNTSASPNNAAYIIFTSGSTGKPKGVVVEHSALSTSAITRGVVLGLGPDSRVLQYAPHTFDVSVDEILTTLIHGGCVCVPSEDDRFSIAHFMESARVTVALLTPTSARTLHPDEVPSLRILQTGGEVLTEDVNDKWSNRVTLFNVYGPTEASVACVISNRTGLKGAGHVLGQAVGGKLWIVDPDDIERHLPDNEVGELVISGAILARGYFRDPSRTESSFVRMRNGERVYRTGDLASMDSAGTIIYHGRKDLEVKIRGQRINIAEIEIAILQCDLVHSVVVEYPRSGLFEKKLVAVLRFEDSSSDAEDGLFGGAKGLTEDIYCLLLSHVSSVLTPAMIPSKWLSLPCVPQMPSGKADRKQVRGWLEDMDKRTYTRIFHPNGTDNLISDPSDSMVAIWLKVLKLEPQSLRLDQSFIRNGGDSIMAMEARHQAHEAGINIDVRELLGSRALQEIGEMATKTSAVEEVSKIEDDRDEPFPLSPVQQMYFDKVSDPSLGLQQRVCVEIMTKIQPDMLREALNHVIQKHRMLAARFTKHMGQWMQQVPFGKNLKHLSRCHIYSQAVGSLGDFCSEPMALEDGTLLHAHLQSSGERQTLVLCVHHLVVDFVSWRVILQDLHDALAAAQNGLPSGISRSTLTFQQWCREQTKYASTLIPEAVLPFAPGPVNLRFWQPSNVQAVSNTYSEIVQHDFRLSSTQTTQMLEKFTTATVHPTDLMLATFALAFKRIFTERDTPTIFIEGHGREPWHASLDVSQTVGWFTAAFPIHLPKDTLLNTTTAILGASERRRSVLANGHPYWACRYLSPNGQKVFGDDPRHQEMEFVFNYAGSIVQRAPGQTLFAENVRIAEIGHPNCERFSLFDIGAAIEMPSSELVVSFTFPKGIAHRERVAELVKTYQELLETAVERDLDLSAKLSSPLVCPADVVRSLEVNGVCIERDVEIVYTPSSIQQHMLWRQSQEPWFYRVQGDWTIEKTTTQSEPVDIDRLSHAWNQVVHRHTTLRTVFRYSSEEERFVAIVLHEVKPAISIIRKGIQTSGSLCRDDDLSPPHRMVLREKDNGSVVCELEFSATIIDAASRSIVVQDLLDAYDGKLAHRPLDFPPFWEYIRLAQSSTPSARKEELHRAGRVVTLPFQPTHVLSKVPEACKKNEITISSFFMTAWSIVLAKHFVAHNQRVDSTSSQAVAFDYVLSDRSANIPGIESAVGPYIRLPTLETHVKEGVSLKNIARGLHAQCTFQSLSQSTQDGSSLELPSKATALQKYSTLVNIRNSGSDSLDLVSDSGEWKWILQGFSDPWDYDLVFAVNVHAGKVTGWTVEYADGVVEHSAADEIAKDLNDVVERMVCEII

B1: standalone IvoA-C (condensation (C) domain of Aspergillus nidulans single-module NRPS IvoA) (protein)
chain: DLDLSAKLSSPLVCPADVVRSLEVNGVCIERDVEIVYTPSSIQQHMLWRQSQEPWFYRVQGDWTIEKTTTQSEPVDIDRLSHAWNQVVHRHTTLRTVFRYSSEEERFVAIVLHEVKPAISIIRKGIQTSGSLCRDDDLSPPHRMVLREKDNGSVVCELEFSHTIIDAASRSIVVQDLLDAYDGKLAHRPLDFPPFWEYIRLAQSSTPSARKEELHRAGRVVTLPFQPTHVLSKVPEACKKNEITISSFFMTAWSIVLAKHFVAHNQRVDSTSSQAVAFDYVLSDRSANIPGIESAVGPYIRLPTLETHVKEGVSLKNIARGLHAQCTFQSLSQSTQDGSSLELPSKATALQKYSTLVNIRNSGSDSLDLVSDSGEWKWILQGFSDPWDYDLVFAVNVHAGKVTGWTVEYADGVVEHSAADEIAKDLNDVVERMVCEII
- stereoinversion activity (complementation in trans): Addition of IvoA-C in equimolar to either IvoA(C^0) mutant or IvoA-ΔC truncation mutant successfully rescued the impaired stereoinversion activity
